According to patent US20250186602A1, “HUMANIZED ANTIBODY THAT BONDS TO EVA1 PROTEIN OR FUNCTIONAL FRAGMENT THEREOF, ANTIBODY-DRUG CONJUGATE AND CHIMERIC ANTIGEN RECEPTOR” (CURED INC., priority 2022, published 2025):
Entries after “also recorded” stand apart in the source; their conditions may differ.

Tests used:
[1] = tested on: various tumor cell lines (Eval positive and Eval negative); experiment: Cytokine production of Eval-CAR-T co-cultured with tumor cell lines (intracellular staining, flow cytometry); type: cell-based, human; conditions: co-culture 1:1, 6 hours, Day 17 cells
Procedure: Next, the cytokine production capacity of the Eval-CAR-T using the anti-human Eval mouse antibody sequence was analyzed. Specifically, CAR-T prepared as described above was cultured until day 17, and the cells were co-cultured with various main cell lines in 1:1. After co-culturing for 6 hours, immobilization and intracellular staining (BD cytofix/cytoperm buffer) were conducted to stain the cells with IFN-gamma (IFN-γ).
The experiment was conducted by using the above-described Eval-CAR-Ts at Day 17. Specifically, the Eval-CAR-Ts were co-cultured with tumor cell lines in 1:1, and the cells were immobilized and stained in the same methods as described above after 6 hours, and intracellular IFN-gamma and IL-2 were evaluated with flow cytometry.
The experiment was conducted by using hEva1-CAR-Ts at Day 17. Specifically, hEva1-CAR-Ts were co-cultured with tumor cell lines in 1:1, and the cells were immobilized and stained in the same manner as described above after 6 hours, and intracellular IFN-gamma and IL-2 were evaluated with flow cytometry. These figures show the percentages at which the cytokine was positive among the CD8 positive cells.
The experiment was conducted by using the above-described hEva1-CAR-Ts at Day 17. Specifically, the hEva1-CAR-Ts were co-cultured with tumor cell lines in 1:1, and the cells were immobilized and stained in the same manner as described above after […], and intracellular IFN-gamma and IL-2 were evaluated with flow cytometry. These figures show the percentages at which each cytokine was positive among the CD8 positive cells.

[2] = tested on: Eval-positive HuCCT-1; experiment: Amplification of Eval-CAR-T after antigen stimulation (co-culture with irradiated Eval-positive HuCCT-1); type: cell-based, human
Procedure: Eval-positive HuCCT-1, was irradiated with a radioactive ray of 100 Gy, and was co-cultured with the CAR-Ts in 1:1, and the amplification efficiencies of these were analyzed. In FIG. 3J, amplification efficiencies in time series are shown. In FIG. 3K, the amplification factors at Day 4 were plotted.
In the same manner as described above, Eval-positive HuCCT-1, was irradiated with a radioactive ray of 100 Gy, and was co-cultured with the CAR-T-cells in 1:1. Then, 50 U/ml of IL-2 was added once every three days, at Day 1, 4, and 7, followed by culturing. In FIG. 3L, the respective amplification efficiencies in time series are shown. In FIG. 3M, the amplification factors at Day 18 were plotted.
In the same manner as described above, Eval-positive HuCCT-1, was irradiated with a radioactive ray of 100 Gy, and was co-cultured with hEva1 CAR-T-cells in 1:1.
In the same manner as described above, Eval-positive HuCCT-1, was irradiated with a radioactive ray of 100 Gy, and was co-cultured with hEva1-CAR-Ts in 1:1.

[3] = tested on: hEva1-mouse Fc; experiment: Surface plasmon resonance kinetics analysis (BiaCore T200, single-cycle); type: binding, human; conditions: SPR, antibody captured 5 nM, analyte hEva1-mouse Fc 1-250 nM, HBS-EP+ pH 7.4
Procedure: The dissociation constants and association constants of the humanized antibodies and the like were analyzed by using surface plasmon resonance (SPR, product name: BiaCore T200 (manufactured by GE healthcare)).
Specifically, first, human IgG capture antibodies were immobilized on a CM5 chip by an amine coupling method. This immobilization was conducted in both reference cells and active cells. Then, the kinetics analysis on the anti-Eval antibody and hEva1 was conducted by a single-cycle method using the following measurement conditions.
• Sample compartment temperature: 10° C. • Running buffer: HBS-EP+buffer, pH 7.4 • Capturing molecule: Human IgG antibody, reference & active cells • Ligand: Various antibodies 5 nM, active cells only • Analyte: hEva1-mouse Fc1, 5, 25, 125, 250 nM, reference & active cells • Regeneration buffer: 3M MgCl2, reference & active cells • 3 cycles of Blanks (Analyte zero concentration)

[4] = tested on: Human glioma stem cells (hGIC); experiment: Cytotoxicity assay of B2E5-ADC against glioma (MTT); type: cell-based
Procedure: Human glioma stem cells (hGIC) were inoculated in a 96-well plate in an amount of 1000 cells per well. […] Then, 5 μl of MTT (5 mg/ml, Wako Pure Chemical) was added to each well, followed by culturing for 2 hours in a CO2 incubator at 37° C. After the culture liquid was discarded, 90 μl of DMSO was added, and after the cells were dissolved, the absorbance (570 nm) was measured by using a benchmark (Bio-Rad).
Note that as a positive control (100%), a measured value in a well in the absence of the antibody was used. In addition, as a negative control (0%), a measured value obtained by adding 5 μl of 1% TritonX100 to a well in the absence of the antibody was used.

hEva1-mouse Fc, sequence (O60487 27-154 limits assumed): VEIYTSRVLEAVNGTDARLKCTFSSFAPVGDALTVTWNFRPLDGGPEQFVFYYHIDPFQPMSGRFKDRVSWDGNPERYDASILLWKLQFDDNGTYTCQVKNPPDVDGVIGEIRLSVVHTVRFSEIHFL

B1: 232aa: mouse antibody-derived Eval-CAR-T with spacer length 232aa (SEQ ID NO: 63) (protein)
chain: EPKSSDKTHTSPPCPAPEFLGGPSVFLFPPKPKDTLMISRTPEVTCVVVDVSQEDPEVQFNWYVDGVEVHNAKTKPREEQFNSTYRVVSVLTVLHQDWLNGKEYKCKVSNKGLPSSIEKTISKAKGQPREPQVYTLPPSQEEMTKNQVSLTCLVKGFYPSDIAVEWESNGQPENNYKTTPPVLDSDGSFFLYSRLTVDKSRWQEGNVFSCSVMHEALHNHYTQKSLSLSLGK
modifications: Hinge region:232aa
cytokine production (intracellular IFN-gamma and IL-2) [1]: most excellent cytokine production capacity | amplification efficiency after Eval stimulation ([2]; 50 U/ml IL-2 at Day 1, 4, 7, co-culture 1:1 with HuCCT-1 irradiated 100 Gy): cell amplifications tended to be better | amplification efficiency after Eval stimulation ([2]; absence of IL-2, co-culture 1:1 with HuCCT-1 irradiated 100 Gy): higher cell amplifications; also recorded: most excellent in cell growth and cytokine production

B2: H2-L2: humanized B2E5-48 IgG1, VH H2 (SEQ ID NO: 13), VL L2 (SEQ ID NO: 7) (antibody, V domains shown)
VH: QVQLVQSGAEVKKPGASVKVSCKASGYTFTNYWMHWVRQAPGQGLEWMGEINPTNGGTDYNEKFQGRVTMTVDKSTSTAYMELSSLRSEDTAVYYCTIYTTALDYWGQGTLVTVSS
VL: EIVLTQSPATLSLSPGERATLSCRASSSVGYMYWYQQKPGQAPRPLIYVTSNRATGIPARFSGSGSGTDYTLTISSLEPEDFAVYYCQQWSSNPPTFGQGTKLEIK
modifications: Variable Region of Heavy Chain 2 (Humanized B2E5-48); Variable Region of Light Chain 2 (Humanized B2E5-48)
ka [3]: 19720 M⁻¹ s⁻¹ | kd [3]: 0.009201 s⁻¹ | cytotoxic activity against hGIC [4]: no cytotoxic activity
